This is an account of results in patent US20160130577.

Some targets named below: RS3 (Homo sapiens) (UniProt P23396); hnRNPA1 (Homo sapiens) (UniProt P09651); hnRNPA2B1 (Homo sapiens) (UniProt P22626); RS4X (Homo sapiens) (UniProt P62701).
Common to all, as to experiment: pulldown
Holding throughout (details): mass spectrometry

Data set [1] addresses HNRPU (hnRNP U) (Homo sapiens) (UniProt Q00839).
The target of data set [2] is NUCL (nucleolin) (Homo sapiens) (UniProt P19338).
Data set [3] concerns the target HNRPC (hnRNP C) (Homo sapiens) (UniProt P07910).

NUCL (nucleolin) (Homo sapiens), sequence (P19338 2-710): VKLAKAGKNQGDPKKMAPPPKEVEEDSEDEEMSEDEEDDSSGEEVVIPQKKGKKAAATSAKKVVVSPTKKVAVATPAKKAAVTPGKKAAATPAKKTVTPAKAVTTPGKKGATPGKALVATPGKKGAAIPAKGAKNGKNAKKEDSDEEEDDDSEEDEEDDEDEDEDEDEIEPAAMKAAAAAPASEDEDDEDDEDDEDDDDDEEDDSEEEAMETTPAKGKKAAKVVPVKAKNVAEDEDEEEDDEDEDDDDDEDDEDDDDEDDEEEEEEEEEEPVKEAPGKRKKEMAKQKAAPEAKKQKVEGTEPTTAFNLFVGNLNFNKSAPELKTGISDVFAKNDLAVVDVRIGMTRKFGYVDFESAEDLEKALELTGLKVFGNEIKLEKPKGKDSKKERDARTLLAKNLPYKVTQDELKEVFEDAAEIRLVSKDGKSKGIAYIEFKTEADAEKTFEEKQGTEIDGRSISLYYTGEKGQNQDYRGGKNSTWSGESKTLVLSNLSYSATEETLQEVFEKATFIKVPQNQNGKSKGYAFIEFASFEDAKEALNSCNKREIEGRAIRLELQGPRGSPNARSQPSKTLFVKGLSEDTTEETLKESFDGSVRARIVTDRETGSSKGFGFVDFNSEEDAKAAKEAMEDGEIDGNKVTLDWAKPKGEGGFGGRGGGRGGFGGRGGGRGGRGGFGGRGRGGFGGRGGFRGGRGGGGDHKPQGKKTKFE
hnRNPA1 (Homo sapiens), sequence (P09651 2-372): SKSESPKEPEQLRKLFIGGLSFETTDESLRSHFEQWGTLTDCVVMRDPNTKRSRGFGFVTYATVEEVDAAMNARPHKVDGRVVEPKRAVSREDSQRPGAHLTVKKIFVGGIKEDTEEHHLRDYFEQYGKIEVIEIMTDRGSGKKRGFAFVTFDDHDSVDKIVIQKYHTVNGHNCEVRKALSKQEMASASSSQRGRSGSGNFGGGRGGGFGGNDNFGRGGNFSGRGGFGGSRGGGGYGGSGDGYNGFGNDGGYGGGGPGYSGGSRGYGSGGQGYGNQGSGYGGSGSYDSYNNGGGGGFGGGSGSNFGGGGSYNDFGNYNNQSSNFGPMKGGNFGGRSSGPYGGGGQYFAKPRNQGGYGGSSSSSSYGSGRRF
hnRNPA2B1 (Homo sapiens), sequence (P22626 whole entry): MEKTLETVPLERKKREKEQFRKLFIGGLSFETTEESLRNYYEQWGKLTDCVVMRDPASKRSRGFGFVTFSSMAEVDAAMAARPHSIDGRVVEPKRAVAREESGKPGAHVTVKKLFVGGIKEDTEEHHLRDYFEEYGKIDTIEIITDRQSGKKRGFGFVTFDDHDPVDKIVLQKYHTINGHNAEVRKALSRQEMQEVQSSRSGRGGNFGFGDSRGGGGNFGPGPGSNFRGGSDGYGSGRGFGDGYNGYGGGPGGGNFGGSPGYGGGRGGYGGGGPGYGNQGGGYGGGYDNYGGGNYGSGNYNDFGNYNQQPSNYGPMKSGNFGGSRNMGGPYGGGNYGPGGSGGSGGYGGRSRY
HNRPC (hnRNP C) (Homo sapiens), sequence (P07910 2-306): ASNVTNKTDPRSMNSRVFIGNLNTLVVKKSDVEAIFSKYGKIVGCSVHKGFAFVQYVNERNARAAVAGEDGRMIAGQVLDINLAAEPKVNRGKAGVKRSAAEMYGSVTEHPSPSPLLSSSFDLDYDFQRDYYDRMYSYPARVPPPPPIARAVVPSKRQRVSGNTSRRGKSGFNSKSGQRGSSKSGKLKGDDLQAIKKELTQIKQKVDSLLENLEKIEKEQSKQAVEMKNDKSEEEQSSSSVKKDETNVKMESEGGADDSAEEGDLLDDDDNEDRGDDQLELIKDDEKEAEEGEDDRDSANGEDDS
HNRPU (hnRNP U) (Homo sapiens), sequence (Q00839 2-825): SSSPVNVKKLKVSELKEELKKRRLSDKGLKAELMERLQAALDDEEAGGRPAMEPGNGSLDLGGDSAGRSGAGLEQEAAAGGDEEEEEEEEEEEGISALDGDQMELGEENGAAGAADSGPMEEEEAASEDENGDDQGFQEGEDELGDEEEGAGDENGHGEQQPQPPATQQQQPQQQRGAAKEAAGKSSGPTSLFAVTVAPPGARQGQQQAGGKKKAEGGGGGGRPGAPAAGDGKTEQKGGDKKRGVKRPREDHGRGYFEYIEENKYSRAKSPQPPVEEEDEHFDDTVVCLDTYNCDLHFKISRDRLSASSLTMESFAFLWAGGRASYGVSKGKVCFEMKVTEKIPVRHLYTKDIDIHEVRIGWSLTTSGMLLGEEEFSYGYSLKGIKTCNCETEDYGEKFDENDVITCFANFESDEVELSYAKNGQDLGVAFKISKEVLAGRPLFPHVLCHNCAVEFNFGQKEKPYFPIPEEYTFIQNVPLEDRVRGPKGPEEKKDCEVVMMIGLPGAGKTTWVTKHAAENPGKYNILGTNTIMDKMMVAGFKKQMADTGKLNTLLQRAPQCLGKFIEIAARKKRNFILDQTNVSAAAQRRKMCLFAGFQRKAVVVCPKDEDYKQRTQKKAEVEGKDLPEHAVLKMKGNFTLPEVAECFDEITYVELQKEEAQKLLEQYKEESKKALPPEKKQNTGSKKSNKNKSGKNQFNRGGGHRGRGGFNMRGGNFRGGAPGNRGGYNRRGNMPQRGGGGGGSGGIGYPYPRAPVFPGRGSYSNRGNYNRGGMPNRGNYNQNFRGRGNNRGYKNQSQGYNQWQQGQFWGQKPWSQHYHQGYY

Consider miR-198, for which the binding turned out to be 3 peptides in data set [1]; 3 peptides with RS3 (Homo sapiens); 2 peptides with hnRNPA1 (Homo sapiens); 9 peptides in data set [2]; 1 peptides in data set [3]; 4 peptides with hnRNPA2B1 (Homo sapiens) (streptavidin bead pulldown). Besides, the binding with RS4X (Homo sapiens) came to 3 peptides.
Take poly-A: the binding in data set [1] is 0 peptides; with RS3 (Homo sapiens), 0 peptides; in the data set with hnRNPA1 (Homo sapiens) it was 0 peptides; in data set [2] (non-specific), 8 peptides; in data set [3] it was 0 peptides; with hnRNPA2B1 (Homo sapiens), 0 peptides. For the same substance, the binding in the data set with RS4X (Homo sapiens) worked out at 0 peptides.
